Test results from US6168954A, “Soybean glutathione-S-transferase enzymes” (E. I. du Pont de Nemours & Company, priority 1999, dated 2001).

B1: se3.03b09: soybean type III GST encoded by cDNA insert in clone se3.03b09 (protein)
chain: MSKSEDLKLLGGWFSPFALRVQIALNLKGLEYEVVEETLNPKSDLLLKSNPVHKKIPVFFHGDKVICESAIIVEYIDEAWTNVPSILPQNAYDRANARFWFAYIDEKWFTSLRSVLVAEDDEAKKPHFEQAEEGLERLEEVFNKYSEGKAYFGGDSIGFIDIGFGSFLSWMRVIEEMSGRKLLDEKKHPGLTQWAETFAADPAVKGILPETDKLVEFAKILQLKWTAAAAAAAK
B2: ssl.pk0020.b10: soybean type III GST encoded by cDNA insert in clone ss1.pk0020.b10 (protein)
chain: MAEQDKVILHGMWASPYAKRVELALNFKGIPYEYVEEDLRNKSDLLLKYNPVHKKVPVLVHNGKAIAESMVILEYIDETWKDGPKLLPSDSYKRAQARFWCHFIQDQLMESTFLVVKTDGEAQQKAIDHVYEKLKVLEDGMKTYLGEGNAIISGVENNFGILDIVFCALYGAYKAHEEVIGLKFIVPEKFPVLFSWLMAIAEVEAVKIATPPHEKTVGILQLFRLSALKSSSATE
B3: ssm.pk0067.g5: soybean type III GST encoded by cDNA insert in clone ssm.pk0067.g5 (protein)
chain: MASYHEEEVRLLGKWASPFSNRVDLALKLKGVPYKYSEEDLANKSADLLKYNPVHKKVPVLVHNGNPLPESLIIVEYIDETWKNNPLLPQDPYERALARFWSKTLDDKILPAIWNACWSDENGREKAVEEALEALKILQETLKDKKFFGGESIGLVDIAANFIGYWVAILQEIAGLELLTIEKFPKLYNWSQDFINHPVIKEGLPPRDELFAFFKASAKK
B4: ses8w.pk0028.c6: soybean type III GST encoded by cDNA insert in clone ses8w.pk0028.c6 (protein)
chain: MAANQEDVKLLGATGSPFVCRVQIALKLKGVQYKFLEENLRNKSELLLKSNPVHKKVPVFIHNEKPIAESLVIVEYIDETWKNNPILPSDPYQRALARFWSKFIDDKVVGAAWKYIYTVDEKEREKNVEESYEALQFLENELKDKKFFGGEEIGLVDIAAVFIAFWIPIIQEVLGLKLFTSEKFPKLYKWSQEFINHPVVKQVLPPRDQLFAFYKACHESLSASK
B5: ssl.pk0005.e6: soybean type III GST encoded by cDNA insert in clone ss1.pk0005.e6 (protein)
chain: MTDEVVLLDFWPSPFGMRVRIALAEKGIEYEYKEEDLRNKSPLLLQMNPVHKKIPVLIHNGKPISESLIAVQYIEEVWNDRNPLLPSDPYQRAQARFWADYVDIKIHDLGKKIWTSKGEEKEAAKKEFIEALKLLEEQLGDKTYFGGDNIGFVDIALVPFYTWFKVYETFGSLNIENECPRFVAWAKRCLQKESVAKSLPDQHKVYEFVVEIRKKLVIE
B6: GST-A: soybean type III GST encoded by cDNA insert in clone GSTa (protein)
chain: MSDEVVLLDFWPSPFGMRVRIALAEKGIKYEYKEEDLRNKSPLLLQMNPVHKKIPVLIHNGKPICESLIAVQYIEEVWNDRNPLLPSDPYQRAQTRFWADYVDKKIYDLGRKIWTSKGEEKEAAKKEFIEALKLLEEQLGDKTYFGGDNLGFVDIALVPFYTWFKAYETFGTLNIEECPKFIAWAKRCLQKESVAKSLPDQQKVYEFIMDLRKKLGIE
B7: se6.pk0037.h4: soybean type III GST encoded by cDNA insert in clone se6.pk0037.h4, expressed in E. coli (protein)
chain: MAATQEDVTLLGVVGSPFVCRVQIALKLKGIECKFLEENLANKSDLLLKSNPVYKKVPVFIHNEKPIAESLVIVEYIDETWKNNPILPSDPYQRSFARFWSKFIDDKIVGASWKSVFTVDEKEREKNVEESLEALQFLENELQDKRFFGGDEFGFVDIAGVFIAFSIPIFQEVAGLQLFTSEKFPKLFKWSQELINHPVVKDVLPPREPLFAFFKSLYESLSASK

experiment: GST conjugation activity with chlorimuron ethyl (HPLC); format: biochemical; conditions: 0.4 mM electrophilic substrate, 4 mM glutathione, 0.1 M MOPS pH 7.0, corrected for uncatalyzed reaction
Source text: (§1) The GST enzymes, expressed and purified as described in Example 5 were screened for their ability to metabolize a variety of substrates. Substrates tested included the three herbicide electrophilic substrates chlorimuron ethyl, alachlor, and Atrazine, and four model electrophilic substrates, 1-chloro-2, 4-dinitro-benzene (CDNB), ethacrynic acid, t-stilbene oxide, and 1,2-epoxy-3-(p-nitro-phenoxy) propane. The enzymes were purified as described in Example 5 and used in the following assay.
(§2) For each enzyme, the conjugation reaction with each electrophilic substrate was performed by incubating 0.3 to 30 μg enzyme in 0.1 M MOPS (pH 7.0) containing 0.4 mM of the electrophilic substrate. The reaction was inititated by the addition of glutathione to a final concentration of 4 mM. After 5 to 30 min, the reaction was terminated by the addition of 45 μL acetonitrile, microfuged for 10 min to remove precipitated protein, and then the supematent was removed and added to 65 μL of water. This sample was chromatographed on a Zorbax C8 reverse phase HPLC column (3 μm particle size, 6.2 mm×8 cm) using a combination of linear gradients (flow=1.5 mL/min) of 1% H3 PO4 in water (solvent A) and 1% H3 PO4 in acetonitile. The gradient started with 5% solvent B, progressing from 5% to 75% solvent B between 1 and 10 min, and from 75% to 95% solvent B between 10 and 12 min. Control reactions without enzyme were performed to correct for uncatalyzed reaction. Quantitation of metabolites were based on an assumption that the extinction coefficient of the conjugate was identical to that of the electrophilic substrate.
(§3) Activities are related to the activity of a known and previously isolated and purified GST enzyme, GH2/4 (also called GST 26) (Czarnecka et al., Plant Molecular Biology 3:45-58 (1984); Ulmasoz et al., Plant Physiol 108:919-927 (1995)).

Molecule	Activity of soybean GST enzyme, Chlorimuron Ethyl
B1	4.4 nmol/min/mg
B2	0.1 nmol/min/mg
B3	0.1 nmol/min/mg
B4	0.2 nmol/min/mg
B5	1.4 nmol/min/mg
B6	0.5 nmol/min/mg
B7	0.1 nmol/min/mg

experiment: GST conjugation activity with alachlor (HPLC); format: biochemical; conditions: 0.4 mM electrophilic substrate, 4 mM glutathione, 0.1 M MOPS pH 7.0, corrected for uncatalyzed reaction
Source text: as §1, §2, §3

Molecule	Activity of soybean GST enzyme, Alachlor
B1	168 nmol/min/mg
B2	7 nmol/min/mg
B3	4 nmol/min/mg
B4	10 nmol/min/mg
B5	166 nmol/min/mg
B6	71 nmol/min/mg
B7	1 nmol/min/mg

experiment: GST conjugation activity with Atrazine (HPLC); format: biochemical; conditions: 0.4 mM electrophilic substrate, 4 mM glutathione, 0.1 M MOPS pH 7.0, corrected for uncatalyzed reaction
Source text: as §1, §2, §3

Molecule	Activity of soybean GST enzyme, Atrazine
B2	0.03 nmol/min/mg
B3	0.03 nmol/min/mg
B4	1.40 nmol/min/mg
B5	0.00 nmol/min/mg
B6	0.03 nmol/min/mg
B7	0.19 nmol/min/mg

experiment: GST conjugation activity with CDNB (HPLC); format: biochemical; conditions: 0.4 mM electrophilic substrate, 4 mM glutathione, 0.1 M MOPS pH 7.0, corrected for uncatalyzed reaction
Source text: as §1, §2, §3

Molecule	Activity of soybean GST enzyme, CDNB
B1	14364 nmol/min/mg
B2	470 nmol/min/mg
B3	1394 nmol/min/mg
B4	515 nmol/min/mg
B5	2030 nmol/min/mg
B6	1924 nmol/min/mg
B7	2364 nmol/min/mg

experiment: GST conjugation activity with ethacrynic acid (HPLC); format: biochemical; conditions: 0.4 mM electrophilic substrate, 4 mM glutathione, 0.1 M MOPS pH 7.0, corrected for uncatalyzed reaction
Source text: as §1, §2, §3

Molecule	Activity of soybean GST enzyme, Ethacrynic Acid
B1	1 nmol/min/mg
B2	14 nmol/min/mg
B3	13 nmol/min/mg
B4	17 nmol/min/mg
B5	11 nmol/min/mg
B6	109 nmol/min/mg
B7	13 nmol/min/mg

experiment: GST conjugation activity with t-stilbene oxide (HPLC); format: biochemical; conditions: 0.4 mM electrophilic substrate, 4 mM glutathione, 0.1 M MOPS pH 7.0, corrected for uncatalyzed reaction
Source text: as §1, §2, §3

Molecule	Activity of soybean GST enzyme, T-Stilbene Oxide
B1	0.07 nmol/min/mg
B2	0.02 nmol/min/mg
B3	0.49 nmol/min/mg
B4	4.04 nmol/min/mg
B5	0.06 nmol/min/mg
B6	0.06 nmol/min/mg
B7	0.06 nmol/min/mg

experiment: GST conjugation activity with 1,2-epoxy-3-(p-nitrophenoxy)propane (HPLC); format: biochemical; conditions: 0.4 mM electrophilic substrate, 4 mM glutathione, 0.1 M MOPS pH 7.0, corrected for uncatalyzed reaction
Source text: as §1, §2, §3

Molecule	Activity of soybean GST enzyme, 1,2-epoxy-3-(p-nitrophenoxy)propane
B1	20 nmol/min/mg
B2	47 nmol/min/mg
B3	19 nmol/min/mg
B4	12 nmol/min/mg
B5	4 nmol/min/mg
B6	22 nmol/min/mg
B7	1 nmol/min/mg
